Molecular target: F-actin from chicken breast muscle (chicken, UniProt P68139 1-377)
Experiment: co-sedimentation

- binding result: binds
B1: 110-kdalton protein-calmodulin complex (complex)
chain 1: MEATTSLLDAAAVGDLVMLDPLSEESLLRTLQERFSRGEIYTYIGEVVISVNPYKPLPIYTPEKVEEYHNCNFFAVKPHIYAIADDAYRSLRDRDRDQCILITGESGAGKTEASKLVMSYVAAVSSKGEEVDKVKEQLLQSNPVLEAFGNAKTIRNDNSSRFGKYMDVEFDFKGDPLGGVISNYLLEKSRIVRHVKGERNFHIFYQLLAGGSAQLLQQLKLRPDCSHYGYLNHEKSVLPGMDDAANFRAMQDAMAIIGFAPAEVTALLEVTAVVLKLGNVKLSSCFQASGMEASSITEPRELQEISQLIGLDPSTLEQALCSRTVKVRDESVLTALSVSQGYYGRDALAKNIYSRLFDWLVNRINTSIQVKPGKQRKVMGVLDIYGFEIFQDNGFEQFIINYCNEKLQQIFILMTLKEEQEEYVREGIQWTPVEFFDNSIICDLIENSKVGILAMLDEECLRPGTVNEDTFITKLNQIFASHKRYESKETLNAKHVTDVSLPLRCFRIHHYAGKVTYNVTGFIEKNNDLLFRDLSQAMWAARHTLLRSLFPEGDPQRPSLKLPPTTGSQFKASVATLMKNLYSKNPNYIRCIKPNDTKTAMLFTPDLVLAQVRYLGLMENVRVRRAGYAFRQLYQPFLERYKMLSRKTWPRWTGGDREGAEVLLAELKFPPEELAYGHTKIFIRSPRTLFDLEKRRQQRVAELATLIQKMFRGWCCRKRYQLMRKSQILISAWFRGHMQRNRYKQMKRSVLLLQAYARGWKTRRMYRRYFRSDACTRLSNFIYRRMVQKYLMGLQKNLPPMAVLDRTWPPAPYKFLSDANQELKSIFYRWKCKKYREQLTPQQRAMLQAKLCASELFKDKKALYAQSLQQPFRGEYLGLTQNRKYQKLQAVAKDKLVMAEAVQKVNRANGKTVPRLLLLTTEHLVLADPKAAQPKMVLSLCDIQGASVSRFSDGLLALHLKETSTAGGKGDLLLVSPHLIELVTRLHQTLMDATAQALPLSIADQFSTRFPKGDVAVTVVESAKGGGDVPVCKKRGSHKMEILVH
chain 2: […]
